# In the supplement of paper PMC6757056:
# ± gives the standard deviation of the averaged measurements.
# B1: library; a variant is named by its letters at N, in order (parent)
# chain: GCUGUCACCGGUGUAUUACCCUAGUGGUCGACCGGUCUGAUGAGUCUNNNNNNAGACGAAACAGC
# Columns and labels:
# hypoxanthine [1] = variants of: B1; experiment: normalized RNA/DNA level with ligand (relative to sTRSVctl = 100) (log10 (% of sTRSVctl)); ligand: hypoxanthine (xanthine aptamer); higher = less ribozyme self-cleavage, higher mRNA level; settings: ligand concentration (+) RNA-Seq: 5 mM, HEK293T, reporter: mCherry (pCS4076), ligand present: yes
# Method in brief: (§1)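 Library plasmids carrying ribozyme switches linked to mCherry, or to eGFP in some ligand experiments, were transfected into HEK293T at 4 µg per 6-well well, with any ligand added 1 h earlier. Seventy-two hours on, total RNA was extracted with EDTA and reverse-transcribed, amplified, barcoded and sequenced. RNA level was RNA over DNA reads normalized to a spiked-in non-cleaving sequence or to the top sequences, then scaled and log-transformed. The top set was 25 sequences, the transform was ×100 and log10, and sequences needed ≥100 DNA reads.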
# hypoxanthine [2] = variants of: B1; experiment: normalized RNA/DNA level without ligand (relative to sTRSVctl = 100) (log10 (% of sTRSVctl)); ligand: hypoxanthine (xanthine aptamer); higher = less ribozyme self-cleavage, higher mRNA level; settings: HEK293T, reporter: mCherry (pCS4076), ligand present: no
# Method in brief: as §1
Variant,normalized RNA/DNA level with ligand (log10) (hypoxanthine [1]),normalized RNA/DNA level without ligand (log10) (hypoxanthine [2])
CGUACG,1.92 ± 0.056,1.87 ± 0.028
CGUACU,1.954 ± 0.018,1.8632 ± 0.0012
GUAAGU,1.94 ± 0.039,1.79 ± 0.019
AUACCU,1.985 ± 0.013,1.9 ± 0.039
AUACCA,1.91 ± 0.02,1.88 ± 0.031
AUAACU,1.93 ± 0.034,1.88 ± 0.027
AUAACC,1.943 ± 0.0094,1.8816 ± 0.0015
AUAACG,1.87 ± 0.062,1.43 ± 0.11
GUAACA,1.89 ± 0.0062,1.8412 ± 0.00038
GUAACC,1.9577 ± 0.00079,1.88 ± 0.089
GUAACU,1.94 ± 0.03,1.878 ± 0.005
CGUAAC,1.95 ± 0.047,1.77 ± 0.038
CGUAAG,1.95 ± 0.049,1.76 ± 0.022
CGUAAU,1.86 ± 0.022,1.675 ± 0.013
GGUGGU,1.96 ± 0.084,1.86 ± 0.061
GGUGGG,1.9 ± 0.028,1.47 ± 0.056
AGUCUC,1.94 ± 0.037,1.89 ± 0.026
AGUCUU,1.96 ± 0.04,1.89 ± 0.036
AGUCUA,1.924 ± 0.0097,1.836 ± 0.0084
UGUAAC,1.914 ± 0.013,1.81 ± 0.024
UGUAAA,1.9212 ± 0.0013,1.802 ± 0.015
UGUAAU,1.91 ± 0.055,1.816 ± 0.012
CGUUCA,1.974 ± 0.012,1.758 ± 0.014

Variant,normalized RNA/DNA level with ligand (log10) (hypoxanthine [1]),normalized RNA/DNA level without ligand (log10) (hypoxanthine [2])
CGUUCU,1.97 ± 0.046,1.843 ± 0.012
CGUUCC,1.98 ± 0.032,1.913 ± 0.017
CGUUCG,1.9 ± 0.025,1.84 ± 0.052
GGUAGA,1.894 ± 0.015,1.41 ± 0.058
CUAACG,1.923 ± 0.017,1.88 ± 0.033
CUAACU,1.92 ± 0.033,1.869 ± 0.0023
CUAACA,1.88 ± 0.069,1.84 ± 0.031
CUAACC,1.91 ± 0.051,1.83 ± 0.038
AGUAUU,1.922 ± 0.015,1.86 ± 0.037
AGUAUC,1.96 ± 0.044,1.931 ± 0.013
AGUAUG,1.824 ± 0.017,1.39 ± 0.043
CGUGGC,1.901 ± 0.0033,1.883 ± 0.013
CGUGGU,1.95 ± 0.021,1.86 ± 0.026
UGUGCA,1.92 ± 0.031,1.86 ± 0.022
UGUGCU,1.92 ± 0.0065,1.93 ± 0.057
UGUGCC,1.984 ± 0.0044,1.946 ± 0.019
UGUGAU,1.9 ± 0.026,1.77 ± 0.023
UGUGAG,1.894 ± 0.015,1.588 ± 0.011
UGUGAA,1.908 ± 0.012,1.76 ± 0.025
UGUAUC,1.94 ± 0.052,1.92 ± 0.013
UGUAUU,1.95 ± 0.056,1.8992 ± 0.0009
UGUAUA,1.97 ± 0.029,1.866 ± 0.0081
AGUACC,1.94 ± 0.069,1.87 ± 0.03

Variant,normalized RNA/DNA level with ligand (log10) (hypoxanthine [1]),normalized RNA/DNA level without ligand (log10) (hypoxanthine [2])
AGUACU,1.897 ± 0.0094,1.89 ± 0.043
AGUACA,1.87 ± 0.071,1.76 ± 0.036
CUACAG,1.91 ± 0.028,1.73 ± 0.039
CUACAU,1.95 ± 0.075,1.7979 ± 0.00079
CUACAC,1.91 ± 0.026,1.77 ± 0.029
UUACCA,1.95 ± 0.038,1.871 ± 0.008
UUACCU,1.99 ± 0.053,1.88 ± 0.029
UUACCC,1.973 ± 0.0071,1.93 ± 0.064
CUAAGG,1.91 ± 0.032,1.75 ± 0.046
CUAAGA,1.947 ± 0.013,1.838 ± 0.011
AGUCAA,1.89 ± 0.051,1.8 ± 0.035
AGUCAG,1.86 ± 0.13,1.64 ± 0.041
AGUCAC,1.94 ± 0.06,1.883 ± 0.014
UGUUCA,1.96 ± 0.093,1.87 ± 0.029
UGUUCC,2.03 ± 0.011,1.93 ± 0.022
UGUUCG,1.94 ± 0.074,1.8368 ± 0.00097
UGUUCU,1.93 ± 0.058,1.97 ± 0.051
GGUUUC,1.946 ± 0.011,1.916 ± 0.0058
UGUUAC,1.912 ± 0.0067,1.836 ± 0.0054
UGUUAG,1.884 ± 0.0019,1.69 ± 0.038
UGUUAA,1.94 ± 0.029,1.841 ± 0.014
GGUCGU,1.99 ± 0.08,1.98 ± 0.092
GGUCGA,1.954 ± 0.0067,1.82 ± 0.067

Variant,normalized RNA/DNA level with ligand (log10) (hypoxanthine [1]),normalized RNA/DNA level without ligand (log10) (hypoxanthine [2])
GGUCGG,1.87 ± 0.031,1.65 ± 0.021
GGUCGC,1.97 ± 0.029,1.74 ± 0.04
CGUGUG,1.903 ± 0.015,1.75 ± 0.08
CGUGUA,1.93 ± 0.024,1.68 ± 0.042
CGUGUC,1.947 ± 0.015,1.94 ± 0.039
CGUGUU,1.97 ± 0.054,1.89 ± 0.071
UGUCAG,1.89 ± 0.03,1.74 ± 0.07
UGUCAC,1.9615 ± 0.00089,1.885 ± 0.012
UGUCAU,1.939 ± 0.01,1.823 ± 0.0053
UGUCAA,1.9 ± 0.035,1.79 ± 0.019
CGUCAU,1.931 ± 0.0026,1.92 ± 0.029
CGUCAC,1.96 ± 0.044,1.92 ± 0.024
UGGUGU,1.95 ± 0.067,1.599 ± 0.0035
CUAAAG,1.92 ± 0.051,1.67 ± 0.013
CUAAAU,1.883 ± 0.01,1.82 ± 0.03
CUAAAA,1.88 ± 0.032,1.813 ± 0.0042
CUACCC,1.935 ± 0.014,1.88 ± 0.06
CUACCG,1.95 ± 0.025,1.8 ± 0.026
CUACCU,1.96 ± 0.092,1.9389 ± 0.0018
CUACCA,1.93 ± 0.053,1.82 ± 0.02
UGUCUU,2.01 ± 0.033,1.907 ± 0.0099
UGUCUC,1.999 ± 0.0092,2.013 ± 0.019
UGUCUG,1.93 ± 0.037,1.77 ± 0.03

Variant,normalized RNA/DNA level with ligand (log10) (hypoxanthine [1]),normalized RNA/DNA level without ligand (log10) (hypoxanthine [2])
UGUGUC,1.98 ± 0.041,1.958 ± 0.0027
UGUGUU,1.95 ± 0.071,1.887 ± 0.0068
UGUGUA,1.92 ± 0.032,1.79 ± 0.058
GGUACA,1.94 ± 0.03,1.796 ± 0.0062
GGUACC,1.94 ± 0.067,1.921 ± 0.016
AGUUCG,1.857 ± 0.017,1.43 ± 0.021
AGUUCC,1.922 ± 0.0092,1.886 ± 0.0063
AGUUCU,1.8964 ± 0.00099,1.86 ± 0.056
AUACAU,1.91 ± 0.03,1.794 ± 0.017
AGUAAG,1.82 ± 0.032,1.39 ± 0.024
AGUAAC,1.92 ± 0.035,1.798 ± 0.0049
AGUCGC,1.945 ± 0.016,1.814 ± 0.016
UGUUUA,1.942 ± 0.0063,1.88 ± 0.035
UGUUUC,1.98 ± 0.071,2.02 ± 0.047
UGUUUU,1.97 ± 0.069,1.888 ± 0.011
AUAAUC,1.939 ± 0.0048,1.884 ± 0.0055
GUACCC,1.9 ± 0.045,1.8666 ± 0.0018
GUACCU,1.985 ± 0.016,1.9131 ± 0.00047
AGUGUC,1.98 ± 0.11,1.88 ± 0.02
AGUGUU,1.96 ± 0.031,1.81 ± 0.027
GGUGCA,1.92 ± 0.043,1.88 ± 0.05
AUAAAA,1.88 ± 0.031,1.8 ± 0.04
GGUCCG,2.01 ± 0.061,1.829 ± 0.018
